{"source": "paper PMC7958859", "about": "“Molecular and Pharmacological Characterization of the Interaction between Human Geranylgeranyltransferase Type I and Ras-Related Protein Rap1B” (International Journal of Molecular Sciences, 2021)", "binders": {"B1": {"name": "SmBiT-Rap1B ΔCQLL (domain or fragment)", "chain": "REYKLVVLGSGGVGKSALTVQFVQGIFVEKYDPTIEDSYRKQVEVDAQQCMLEILDTAGTEQFTAMRDLYMKNGQGFALVYSITAQSTFNDLQDLREQILRVKDTDDVPMILVGNKCDLEDERVVGKEQGQNLARQWNNCAFLESSAKSKINVNEIFYDLVRQINRKTPVPGKARKKSS", "notes": "human Rap1B lacking the C-terminal CAAX motif CQLL (from C181 to the end); the forward primer begins at codon 2, the reverse primer ends with Lys-Lys-Ser-Ser and a stop codon; Expression about 5-fold lower than SmBiT-Rap1B WT by Western blot; Glycine/serine linker and Ala-Ile-Ala between SmBiT and Rap1B; also called complete CAAX motif deletion mutant; source: HEK293 stably expressing the human …"}}, "biological_target": "human GGTase-I (LgBiT-GGTase-I-β-subunit with co-transfected untagged FTase α-subunit) (human, UniProt P53609-1 2-377; P49354-1 1-379)", "experiment": "split reporter (BiFC, NanoBiT); living HEK293 cells stably expressing the human A2BAR, transient co-transfection (50 ng DNA/well of each LgBiT and SmBiT plasmid, 100 ng/well untagged FTase α, ΔCQLL 50–200 ng/well); NanoGlo live-cell substrate 24 h after transfection, luminescence at 25 °C every 30 s, maxima plotted as RLU; also after treatment with vehicle (DMSO), adenosine, NECA, BAY60-6583, CGS-21680, forskolin, …", "details": "partners not purified"}
{"binder": "B1", "values": [{"measurement": "fold lower luminescence than with Rap1B WT (50 ng DNA/well each)", "result": "~20", "unit": "fold"}, {"measurement": "fold lower luminescence than with Rap1B WT (ΔCQLL 200 ng DNA/well, WT 50 ng DNA/well)", "result": "~10", "unit": "fold"}]}
